This is an account of results in PMC9166750 (Scientific Reports, 2022).

For test [1], the target named is syntaxin-1a cytoplasmic domain (residues 1–265) with C-terminal Avi-tag (UniProt P32851). Put plainly: fluorescence polarisation; ensemble fluorescence anisotropy of syntaxins with Munc18 (Supplemental Fig. 3); estimated Kd; conditions of this titration not told.
Test [2] has the same target. Put plainly: pull-down; syntaxins biotinylated at the N-terminal amino group on neutravidin agarose beads; about 300 μg Munc18-1 incubated 1 h, washed, then 500 μg SNAP-25A 1 h at room temperature, washed with TBS; SDS-PAGE, Coomassie, Munc18-1 and SNAP-25 bands normalised to the syntaxin bands (ImageJ).
The target in test [3] is syntaxin-3b (residues 1–264)-Avi, T14E, double-cysteine construct labelled with FRET dyes (mouse) (UniProt Q64704). As to the kind of experiment: FRET or BRET; single-molecule FRET within syntaxin-3b (donor and acceptor on two cysteines), tethered by C-terminal biotin to streptavidin on a PEG surface; 10 μM SNAP-25 and synaptobrevin-2 (1-96) in solution; low FRET (open) read as SNARE complex.

Test [4] concerns the target syntaxin-3b (residues 1–264)-Avi, wild type, double-cysteine construct labelled with FRET dyes (mouse) (UniProt Q64704). The description is as above.
The target in test [5] is syntaxin-1a cytoplasmic domain (residues 1–265) with C-terminal Avi-tag (UniProt P32851). As to the kind of experiment: fluorescence polarisation; bulk fluorescence anisotropy; Alexa 488-labelled syntaxin about 0.5 μM in TBS (20 mM Tris pH 7.5, 150 mM NaCl, 0.5 mM TCEP), unlabelled SNAP-25A 0-0.900 μM, about 15 min at room temperature, 96 well plate; curves fit with Hill equations to estimate Kd.

In test [6] the target is T1, Munc18-1 (UniProt P61765 1-594).
T1 construct: The methods describe no plasmid for Munc18-1; only its tag cleavage and gel filtration are told; source: E. coli BL21 (DE3*), purified (Ni-NTA, TEV cleavage, Superdex 200 gel filtration)
Put plainly: fluorescence polarisation; ensemble fluorescence anisotropy of syntaxins with Munc18 (Supplemental Fig. 3); estimated Kd; conditions of this titration not told. Conditions: both partners purified.

In the case of “Munc18-1 (from UniProt P61765 1-594) (natural protein)”, the Kd in test [1] is 6.6 nM. In addition, in test [2], the percent decrease of binary t-SNARE complex formation with SNAP-25 in the presence of Munc18-1 was 70%.

In test [3], “SNAP-25, full length (from UniProt P60881-2 1-206) (natural protein)” registered a fold increase of SNARE complex formation against WT syntaxin-3b of 2 fold. The molecule further registered a percent of molecules that formed ternary SNARE complex in test [4] of 50%. The Kd in test [5] is 161 nM.

In test [3], “synaptobrevin-2 cytoplasmic domain (residues 1–96) (from UniProt P63045 1-96) (domain or fragment)” came in with a fold increase of SNARE complex formation against WT syntaxin-3b of 2 fold. For the same molecule, in test [4], the percent of molecules that formed ternary SNARE complex worked out at 50%.

B1: syntaxin-3b cytoplasmic domain (residues 1–264) with C-terminal Avi-tag, wild type (domain or fragment, mouse, UniProt Q64704-2 1-264, looked up)
chain: MKDRLEQLKAKQLTQDDDTDEVEIAIDNTAFMDEFFSEIEETRLNIDKISEHVEEAKKLYSIILSAPIPEPKTKDDLEQLTTEIKKRANNVRNKLKSMEKHIEEDEVRSSADLRIRKSQHSVLSRKFVEVMTKYNEAQVDFRERSKGRIQRQLEITGKKTTDEELEEMLESGNPAIFTSGIIDSQISKQALSEIEGRHKDIVRLESSIKELHDMFMDIAMLVENQGAMIDRIENNMDQSVGFVERAVADTKKAVKYQSEARRKK
modifications: Alexa 488 (NHS ester) at the N-terminal primary amino group in the anisotropy assays; biotin (NHS-biotin) at the N-terminal primary amino group in the pull-downs
notes: syntaxin-3b (splice isoform 3b of syntaxin-3), cytoplasmic domain, residues 1-264; Gene synthesized and inserted into pJ414 (ATUM); The two native cysteines lie in the transmembrane region, which the Avi-tag replaces; also called SX-3b; WT syntaxin-3b; source: E. coli BL21 (DE3*), purified (Ni-NTA, TEV cleavage, HiTrap Q); not shown: His6, N-terminal, cleaved
Take B1: the Kd in test [6] was 9.6 nM.

Usually Kd stands for the equilibrium constant for the complex coming apart.
